Publication PMC7241785, “Filaggrin and filaggrin 2 processing are linked together through skin aspartic acid protease activation” (PLoS ONE, 2020)

Target: T1, GST-Flag-SASPase 28 kDa recombinant protein (human, UniProt Q53RT3 85-343)
T1 construct: Skin aspartic acid protease, amino acids 1-259 of SASPase 28, corresponding to amino acids 85-343 of SASPase 37 (Q53RT3); Expression vector pEB9; also called GST-SASPase 28; 28 kDa SASPase; source: E. coli BL21, purified (glutathione resin); not shown: GST, N-terminal, kept; Flag, N-terminal, kept
T1 sequence (looked up): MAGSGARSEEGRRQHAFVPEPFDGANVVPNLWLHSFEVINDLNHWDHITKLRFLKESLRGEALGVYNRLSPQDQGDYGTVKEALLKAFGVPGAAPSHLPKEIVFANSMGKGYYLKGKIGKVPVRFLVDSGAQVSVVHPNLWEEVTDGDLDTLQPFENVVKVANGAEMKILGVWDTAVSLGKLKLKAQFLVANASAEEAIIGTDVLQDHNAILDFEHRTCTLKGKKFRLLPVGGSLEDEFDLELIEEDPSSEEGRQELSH
Experiment: SPR; Biacore T200, 25°C, HBS-EP+; goat anti-GST on CM5 captures GST-Flag-SASPase 28 (1 μM, flow cell 2) and GST (flow cell 1); analyte MBP-HA-FLG2S100 at 0-6 μM, control MBP-HA at 3 and 6 μM; 1:1 Langmuir fit
Details: both partners purified

B1: MBP-HA FLG2 S100 (aa 2-95) (domain or fragment, human, UniProt Q5D862 2-95, looked up)
chain: TDLLRSVVTVIDVFYKYTKQDGECGTLSKGELKELLEKELHPVLKNPDDPDTVDVIMHMLDRDHDRRLDFTEFLLMIFKLTMACNKVLSKEYCK
notes: Filaggrin 2, amino acids 2-95 containing the S100 domain; Expression vector pEB7; also called MBP-HA FLG2 (aa 2-95); source: E. coli BL21, purified (amylose resin); not shown: MBP, N-terminal, kept; HA, N-terminal, kept
With B1 the Kd was 488 nM, the koff was 0.00226 s⁻¹ and the kon was 4630 M⁻¹ s⁻¹.
